Two molecules from PMC11096129 can be followed below.

Data set [1] has as its target T1, RAD52 NTD (Homo sapiens, UniProt P43351 1-209, del210-418).
T1 sequence: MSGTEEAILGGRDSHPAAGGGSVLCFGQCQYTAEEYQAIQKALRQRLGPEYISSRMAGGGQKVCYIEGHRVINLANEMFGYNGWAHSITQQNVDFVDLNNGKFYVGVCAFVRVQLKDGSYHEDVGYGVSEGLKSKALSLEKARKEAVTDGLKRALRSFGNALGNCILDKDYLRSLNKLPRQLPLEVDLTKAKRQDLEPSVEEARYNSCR
The experiment in a line: fluorescence anisotropy; 1 mM Mg(OAc)2; ring concentration (11-mer); FA: 25 mM HEPES pH 8.0, 0.2 M KOAc, 10% glycerol, 0.25 mM TCEP, 1 mM Mg(OAc)2, 0.01% Brij-35, 25 °C, 10 nM DNA; BLI: 25 mM HEPES pH 8.0, 200 mM KOAc, 0.01% Tween-20, 1 mM Mg(OAc)2, 0.25 mM TCEP, 25 °C. As to conditions: protein: recombinant; tags: none (tags removed); chain copies: 11; label: 5' 6-FAM; single strand.

Data set [2] concerns the target T2, RAD52-OR (open ring) (Homo sapiens, UniProt P43351 1-418).
T2 sequence: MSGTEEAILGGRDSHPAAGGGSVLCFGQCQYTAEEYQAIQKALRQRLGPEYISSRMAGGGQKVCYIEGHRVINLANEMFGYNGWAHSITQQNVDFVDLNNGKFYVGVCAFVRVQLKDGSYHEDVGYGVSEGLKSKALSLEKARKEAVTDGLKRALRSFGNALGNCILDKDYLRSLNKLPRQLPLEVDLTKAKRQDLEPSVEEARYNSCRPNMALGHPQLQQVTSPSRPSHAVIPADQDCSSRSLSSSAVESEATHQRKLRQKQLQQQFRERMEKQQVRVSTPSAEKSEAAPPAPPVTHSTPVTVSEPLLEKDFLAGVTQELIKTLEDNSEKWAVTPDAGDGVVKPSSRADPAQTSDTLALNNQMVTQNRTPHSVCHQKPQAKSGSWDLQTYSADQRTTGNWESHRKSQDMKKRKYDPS
The data set can be described thus: fluorescence anisotropy; 1 mM Mg(OAc)2; ring concentration (10-mer); FA: 25 mM HEPES pH 8.0, 0.2 M KOAc, 10% glycerol, 0.25 mM TCEP, 1 mM Mg(OAc)2, 0.01% Brij-35, 25 °C, 10 nM DNA; BLI: 25 mM HEPES pH 8.0, 200 mM KOAc, 0.01% Tween-20, 1 mM Mg(OAc)2, 0.25 mM TCEP, 25 °C. As to conditions: protein: recombinant; tags: none (tags removed); chain copies: 10; label: 5' 6-FAM; single strand. (In general: In fluorescence polarisation assays a small probe gives low polarisation when free and higher when bound to something large.)

Data set [3] concerns the target T3, RAD52(∆C) (Homo sapiens, UniProt P43351 1-400, del401-418).
T3 sequence: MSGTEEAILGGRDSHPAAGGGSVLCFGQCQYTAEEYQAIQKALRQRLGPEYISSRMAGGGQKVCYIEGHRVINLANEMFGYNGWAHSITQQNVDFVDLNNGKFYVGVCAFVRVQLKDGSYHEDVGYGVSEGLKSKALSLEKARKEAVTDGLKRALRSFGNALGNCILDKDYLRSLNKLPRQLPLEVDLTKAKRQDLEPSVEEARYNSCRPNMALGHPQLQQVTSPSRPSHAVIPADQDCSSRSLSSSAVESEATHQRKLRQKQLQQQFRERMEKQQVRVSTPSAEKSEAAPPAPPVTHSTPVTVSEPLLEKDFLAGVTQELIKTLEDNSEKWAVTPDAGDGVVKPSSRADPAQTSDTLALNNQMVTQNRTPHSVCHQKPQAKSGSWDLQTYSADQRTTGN
The experiment in a line: fluorescence anisotropy; 1 mM Mg(OAc)2; FA: 25 mM HEPES pH 8.0, 0.2 M KOAc, 10% glycerol, 0.25 mM TCEP, 1 mM Mg(OAc)2, 0.01% Brij-35, 25 °C, 10 nM DNA; BLI: 25 mM HEPES pH 8.0, 200 mM KOAc, 0.01% Tween-20, 1 mM Mg(OAc)2, 0.25 mM TCEP, 25 °C. As to conditions: protein: recombinant; tags: none (tags removed); chain copies: 11; label: 5' 6-FAM; single strand.

The target of data set [4] is T4, RAD52(∆RID) (Homo sapiens, UniProt P43351 1-418, del239-290).
T4 sequence: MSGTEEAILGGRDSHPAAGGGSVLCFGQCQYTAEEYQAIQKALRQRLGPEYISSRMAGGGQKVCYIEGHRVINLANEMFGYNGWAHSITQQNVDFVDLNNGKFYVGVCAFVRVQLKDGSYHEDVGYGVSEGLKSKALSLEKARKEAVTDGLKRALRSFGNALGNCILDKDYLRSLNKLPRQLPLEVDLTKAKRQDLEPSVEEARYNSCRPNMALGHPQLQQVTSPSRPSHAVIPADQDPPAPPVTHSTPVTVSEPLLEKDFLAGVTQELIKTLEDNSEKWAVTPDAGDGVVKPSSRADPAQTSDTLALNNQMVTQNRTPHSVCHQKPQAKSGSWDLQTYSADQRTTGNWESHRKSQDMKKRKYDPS
Described as above. The following applies: protein: recombinant; tags: none (tags removed); label: 5' 6-FAM; single strand.

In data set [5] the target is T5, RPA (Homo sapiens, UniProt P27694;P15927;P35244 1-616;1-270;1-121). The data set is described as above. The following applies: protein: recombinant; tags: 10xHis on RPA3; copies: 1;1;1; label: 5' 6-FAM; single strand.
T5 sequence (P27694 whole entry, chain 1 of 3): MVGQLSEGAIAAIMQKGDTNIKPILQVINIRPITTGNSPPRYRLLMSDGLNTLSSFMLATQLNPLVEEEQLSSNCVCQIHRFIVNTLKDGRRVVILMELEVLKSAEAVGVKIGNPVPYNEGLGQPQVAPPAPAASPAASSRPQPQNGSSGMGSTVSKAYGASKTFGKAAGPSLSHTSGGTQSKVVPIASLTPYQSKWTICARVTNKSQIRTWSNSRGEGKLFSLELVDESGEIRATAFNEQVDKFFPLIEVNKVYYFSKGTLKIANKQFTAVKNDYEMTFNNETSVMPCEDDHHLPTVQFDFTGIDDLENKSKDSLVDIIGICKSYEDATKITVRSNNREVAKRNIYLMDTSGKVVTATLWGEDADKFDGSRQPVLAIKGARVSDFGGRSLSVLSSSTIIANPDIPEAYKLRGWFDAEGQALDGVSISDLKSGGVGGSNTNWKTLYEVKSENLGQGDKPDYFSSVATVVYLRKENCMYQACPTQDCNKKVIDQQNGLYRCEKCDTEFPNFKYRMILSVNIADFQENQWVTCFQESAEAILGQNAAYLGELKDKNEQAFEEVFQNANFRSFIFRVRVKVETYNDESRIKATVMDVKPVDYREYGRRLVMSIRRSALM
T5 sequence (P15927 whole entry, chain 2 of 3): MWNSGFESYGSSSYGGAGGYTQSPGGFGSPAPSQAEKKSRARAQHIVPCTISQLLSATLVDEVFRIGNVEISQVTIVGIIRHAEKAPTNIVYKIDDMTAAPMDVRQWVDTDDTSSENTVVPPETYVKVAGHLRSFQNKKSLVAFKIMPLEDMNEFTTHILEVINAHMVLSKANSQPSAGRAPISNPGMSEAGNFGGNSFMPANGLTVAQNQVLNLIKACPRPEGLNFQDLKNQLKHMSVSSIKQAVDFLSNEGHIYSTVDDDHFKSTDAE
T5 sequence (P35244 whole entry, chain 3 of 3): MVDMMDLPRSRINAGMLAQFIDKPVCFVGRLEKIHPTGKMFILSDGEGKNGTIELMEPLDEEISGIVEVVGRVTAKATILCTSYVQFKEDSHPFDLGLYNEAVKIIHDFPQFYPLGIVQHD
The target in data set [6] is RPA(∆WHD) (Homo sapiens, UniProt P27694;P15927;P35244 1-616;1-206;1-121). Described as above. As to conditions: protein: recombinant; tags: 10xHis on RPA3; copies: 1;1;1; label: 5' 6-FAM; single strand.
Sequence of RPA(∆WHD) (P27694 whole entry, chain 1 of 3): as the sequence (P27694 whole entry, chain 1 of 3) above
Sequence of RPA(∆WHD) (P15927 1-206, chain 2 of 3): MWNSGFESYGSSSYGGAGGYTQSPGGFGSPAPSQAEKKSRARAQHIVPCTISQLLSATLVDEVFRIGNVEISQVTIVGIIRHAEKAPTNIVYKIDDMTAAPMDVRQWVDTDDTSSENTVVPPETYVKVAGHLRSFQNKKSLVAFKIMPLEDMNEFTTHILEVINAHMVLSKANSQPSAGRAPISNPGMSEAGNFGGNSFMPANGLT
Sequence of RPA(∆WHD) (P35244 whole entry, chain 3 of 3): as the sequence (P35244 whole entry, chain 3 of 3) above
Data set [7] addresses T5, RPA. The experiment in a line: cryo-EM (3.2 Å, trimeric core); 2 mM Mg(OAc)2; FA: 25 mM HEPES pH 8.0, 0.2 M KOAc, 10% glycerol, 0.25 mM TCEP, 1 mM Mg(OAc)2, 0.01% Brij-35, 25 °C, 10 nM DNA; BLI: 25 mM HEPES pH 8.0, 200 mM KOAc, 0.01% Tween-20, 1 mM Mg(OAc)2, 0.25 mM TCEP, 25 °C. As to conditions: protein: recombinant; tags: 10xHis on RPA3; copies: 1;1;1; single strand.

B1: FAM-SSA4 (40 nt) (ssDNA)
DNA: TATCGAATCCGTCTAGTCAACGCTGCCGAATTCTACCAGT
As for B1, the Kd in data set [1] is 3.2 ± 0.6 nM; in data set [2], 0.3 ± 0.1 nM; in data set [3], 0.2 ± 0.2 nM; in data set [4], 0.7 ± 0.2 nM; in data set [5], 3.6 ± 0.5 nM; in data set [6], 3.4 ± 0.9 nM.

B2: SSA7 (28 nt) (ssDNA)
DNA: CGGCAGCGTTGACTAGACGGATTCGATA
Turning to B2, in data set [7], the binding result is given as “binds”.

What is called Kd is the equilibrium constant for the complex coming apart.
